{"source": "paper doi:10.1101/2024.01.24.577129", "binders": {"B1": {"name": "RGY-hIgG1-34-1-2S (antibody, V domains shown)", "VH": "EVQLQQSGAEFVRPGASVKLSCTASGFNLKDDYMFWVKQRPEQGLEWIGWIAPDNGDTEYASKFQGKATITADTSSNTAYVQLSSLTSEDTAVYYCTTWGYYSYVNYWGQGTTLTVSS", "VL": "DIQMTQSPSSLSASLGERVSLTCRASQDIGSNLNWLQQEPDGTIKRLIYATYSLDSGVPKRFSGSRSGSDYSLTISSLESEDFVDYYCLQYASSPYTFGGGTKLEIK"}}, "molecular_target": "RGY-hIgG1-34-1-2S (mouse | human | not stated)", "assay": "negative stain electron microscopy; antibody in solution diluted to 0.01 mg/ml in 25 mM HEPES, 100 mM NaCl, on carbon-coated grids, 0.75% uranyl formate", "data": [{"binder": "B1", "values": [{"measurement": "stoichiometry N", "result": 6}]}]}
